Experimental data: paper PMC5505701, “Somatostatin binds to the human amyloid β peptide and favors the formation of distinct oligomers” (eLife, 2017)

B1: 14-3-3 protein epsilon: human brain protein (protein, UniProt P62258 1-255, looked up)
14-3-3 protein epsilon: MDDREDLVYQAKLAEQAERYDEMVESMKKVAGMDVELTVEERNLLSVAYKNVIGARRASWRIISSIEQKEENKGGEDKLKMIREYRQMVETELKLICCDILDVLDKHLIPAANTGESKVFYYKMKGDYHRYLAEFATGNDRKEAAENSLVAYKAASDIAMTELPPTHPIRLGLALNFSVFYYEILNSPDRACRLAKAAFDDAIAELDTLSEESYKDSTLIMQLLRDNLTLWTSDMQGDGEEQNKEALQDVEDENQ
B2: Heat shock protein, 60 kDa, mitochondrial: human brain protein (protein, UniProt P10809 27-573, looked up)
60 kDa heat shock protein, …: AKDVKFGADARALMLQGVDLLADAVAVTMGPKGRTVIIEQSWGSPKVTKDGVTVAKSIDLKDKYKNIGAKLVQDVANNTNEEAGDGTTTATVLARSIAKEGFEKISKGANPVEIRRGVMLAVDAVIAELKKQSKPVTTPEEIAQVATISANGDKEIGNIISDAMKKVGRKGVITVKDGKTLNDELEIIEGMKFDRGYISPYFINTSKGQKCEFQDAYVLLSEKKISSIQSIVPALEIANAHRKPLVIIAEDVDGEALSTLVLNRLKVGLQVVAVKAPGFGDNRKNQLKDMAIATGGAVFGEEGLTLNLEDVQPHDLGKVGEVIVTKDDAMLLKGKGDKAQIEKRIQEIIEQLDVTTSEYEKEKLNERLAKLSDGVAVLKVGGTSDVEVNEKKDRVTDALNATRAAVEEGIVLGGGCALLRCIPALDSLTPANEDQKIGIEIIKRTLKIPAMTIAKNAGVEGSLIVEKIMQSSSEVGYDAMAGDFVNMVEKGIIDPTKVVRTALLDAAGVASLLTTAEVVVTEIPKEEKDPGMGAMGGMGGGMGGGMF
B3: Phosphoglycerate kinase 1: human brain protein (protein, UniProt P00558 2-417, looked up)
Phosphoglycerate kinase 1: SLSNKLTLDKLDVKGKRVVMRVDFNVPMKNNQITNNQRIKAAVPSIKFCLDNGAKSVVLMSHLGRPDGVPMPDKYSLEPVAVELKSLLGKDVLFLKDCVGPEVEKACANPAAGSVILLENLRFHVEEEGKGKDASGNKVKAEPAKIEAFRASLSKLGDVYVNDAFGTAHRAHSSMVGVNLPQKAGGFLMKKELNYFAKALESPERPFLAILGGAKVADKIQLINNMLDKVNEMIIGGGMAFTFLKVLNNMEIGTSLFDEEGAKIVKDLMSKAEKNGVKITLPVDFVTADKFDENAKTGQATVASGIPAGWMGLDCGPESSKKYAEAVTRAKQIVWNGPVGVFEWEAFARGTKALMDEVVKATSRGCITIIGGGDTATCCAKWNTEDKVSHVSTGGGASLELLEGKVLPGVDALSNI
B4: Endophilin-A1: human brain protein (protein, UniProt Q99962 1-352, looked up)
Endophilin-A1: MSVAGLKKQFHKATQKVSEKVGGAEGTKLDDDFKEMERKVDVTSRAVMEIMTKTIEYLQPNPASRAKLSMINTMSKIRGQEKGPGYPQAEALLAEAMLKFGRELGDDCNFGPALGEVGEAMRELSEVKDSLDIEVKQNFIDPLQNLHDKDLREIQHHLKKLEGRRLDFDYKKKRQGKIPDEELRQALEKFDESKEIAESSMFNLLEMDIEQVSQLSALVQAQLEYHKQAVQILQQVTVRLEERIRQASSQPRREYQPKPRMSLEFPTGDSTQPNGGLSHTGTPKPSGVQMDQPCCRALYDFEPENEGELGFKEGDIITLTNQIDENWYEGMLHGHSGFFPINYVEILVALPH
B5: ATP synthase subunit alpha, mitochondrial: human brain protein (protein, UniProt P25705 44-553, looked up)
ATP synthase F(1) complex …: QKTGTAEMSSILEERILGADTSVDLEETGRVLSIGDGIARVHGLRNVQAEEMVEFSSGLKGMSLNLEPDNVGVVVFGNDKLIKEGDIVKRTGAIVDVPVGEELLGRVVDALGNAIDGKGPIGSKTRRRVGLKAPGIIPRISVREPMQTGIKAVDSLVPIGRGQRELIIGDRQTGKTSIAIDTIINQKRFNDGSDEKKKLYCIYVAIGQKRSTVAQLVKRLTDADAMKYTIVVSATASDAAPLQYLAPYSGCSMGEYFRDNGKHALIIYDDLSKQAVAYRQMSLLLRRPPGREAYPGDVFYLHSRLLERAAKMNDAFGGGSLTALPVIETQAGDVSAYIPTNVISITDGQIFLETELFYKGIRPAINVGLSVSRVGSAAQTRAMKQVAGTMKLELAQYREVAAFAQFGSDLDAATQQLLSRGVRLTELLKQGQYSPMAIEEQVAVIYAGVRGYLDKLEPSKITKFENAFLSHVVSQHQALLGTIRADGKISEQSDAKLKEIVTNFLAGFEA
B6: Peroxiredoxin-5, mitochondrial: human brain protein (protein, UniProt P30044 53-214, looked up)
Peroxiredoxin-5, mitochondrial: MAPIKVGDAIPAVEVFEGEPGNKVNLAELFKGKKGVLFGVPGAFTPGCSKTHLPGFVEQAEALKAKGVQVVACLSVNDAFVTGEWGRAHKAEGKVRLLADPTGAFGKETDLLLDDSLVSIFGNRRLKRFSMVVQDGIVKALNVEPDGTGLTCSLAPNIISQL
B7: Peroxiredoxin-6: human brain protein (protein, UniProt P30041 2-224, looked up)
Peroxiredoxin-6: PGGLLLGDVAPNFEANTTVGRIRFHDFLGDSWGILFSHPRDFTPVCTTELGRAAKLAPEFAKRNVKLIALSIDSVEDHLAWSKDINAYNCEEPTEKLPFPIIDDRNRELAILLGMLDPAEKDEKGMPVTARVVFVFGPDKKLKLSILYPATTGRNFDEILRVVISLQLTAEKRVATPVDWKDGDSVMVLPTIPEEEAKKLFPKGVFTKELPSGKKYLRYTPQP
B8: Cofilin-2: human brain protein (protein, UniProt Q9Y281 2-166, looked up)
Cofilin-2: ASGVTVNDEVIKVFNDMKVRKSSTQEEIKKRKKAVLFCLSDDKRQIIVEEAKQILVGDIGDTVEDPYTSFVKLLPLNDCRYALYDATYETKESKKEDLVFIFWAPESAPLKSKMIYASSKDAIKKKFTGIKHEWQVNGLDDIKDRSTLGEKLGGNVVVSLEGKPL
B9: Tubulin beta-3 chain: human brain protein (protein, UniProt Q13509 1-450, looked up)
Tubulin beta-3 chain: MREIVHIQAGQCGNQIGAKFWEVISDEHGIDPSGNYVGDSDLQLERISVYYNEASSHKYVPRAILVDLEPGTMDSVRSGAFGHLFRPDNFIFGQSGAGNNWAKGHYTEGAELVDSVLDVVRKECENCDCLQGFQLTHSLGGGTGSGMGTLLISKVREEYPDRIMNTFSVVPSPKVSDTVVEPYNATLSIHQLVENTDETYCIDNEALYDICFRTLKLATPTYGDLNHLVSATMSGVTTSLRFPGQLNADLRKLAVNMVPFPRLHFFMPGFAPLTARGSQQYRALTVPELTQQMFDAKNMMAACDPRHGRYLTVATVFRGRMSMKEVDEQMLAIQSKNSSYFVEWIPNNVKVAVCDIPPRGLKMSSTFIGNSTAIQELFKRISEQFTAMFRRKAFLHWYTGEGMDEMEFTEAESNMNDLVSEYQQYQDATAEEEGEMYEDDEEESEAQGPK
B10: Peroxiredoxin-2: human brain protein (protein, UniProt P32119 2-198, looked up)
Peroxiredoxin-2: ASGNARIGKPAPDFKATAVVDGAFKEVKLSDYKGKYVVLFFYPLDFTFVCPTEIIAFSNRAEDFRKLGCEVLGVSVDSQFTHLAWINTPRKEGGLGPLNIPLLADVTRRLSEDYGVLKTDEGIAYRGLFIIDGKGVLRQITVNDLPVGRSVDEALRLVQAFQYTDEHGEVCPAGWKPGSDTIKPNVDDSKEYFSKHN
B11: Acetyl-CoA acetyltransferase, mitochondrial: human brain protein (protein, UniProt P24752 34-427, looked up)
Acetyl-CoA acetyltransferase, …: VSKPTLKEVVIVSATRTPIGSFLGSLSLLPATKLGSIAIQGAIEKAGIPKEEVKEAYMGNVLQGGEGQAPTRQAVLGAGLPISTPCTTINKVCASGMKAIMMASQSLMCGHQDVMVAGGMESMSNVPYVMNRGSTPYGGVKLEDLIVKDGLTDVYNKIHMGSCAENTAKKLNIARNEQDAYAINSYTRSKAAWEAGKFGNEVIPVTVTVKGQPDVVVKEDEEYKRVDFSKVPKLKTVFQKENGTVTAANASTLNDGAAALVLMTADAAKRLNVTPLARIVAFADAAVEPIDFPIAPVYAASMVLKDVGLKKEDIAMWEVNEAFSLVVLANIKMLEIDPQKVNINGGAVSLGHPIGMSGARIVGHLTHALKQGEYGLASICNGGGGASAMLIQKL

The molecules below were run on oligomeric Aβ1-42 (oAβ1-42-biotin bait) (assay: Affinity capture interactome Experiment II (C-terminally tethered oAβ1-42-biotin vs biotin)). Details: Experiment II, oAbeta 1-42-biotin (TMT 126) versus biotin (TMT 131), replicate channel 126.

Molecule	126/131
B1	1.157

Same assay, conditions: Experiment II, oAbeta 1-42-biotin (TMT 128) versus biotin (TMT 131), replicate channel 128

Molecule	128/131
B1	1.411

Same assay, conditions: Experiment II, oAbeta 1-42-biotin (TMT 130) versus biotin (TMT 131), replicate channel 130

Molecule	130/131
B1	1.195

Same assay, conditions: enrichment relative to biotin-only negative control; human frontal lobe digitonin extract; TMT; pH 8.0, 4°C overnight

Molecule	Experiment II oAβ1-42-B/B Ratio
B2	2.27
B3	1.38
B4	1.28
B5	2.16
B6	2.15
B7	1.42
B8	1.81
B9	1.18
B10	1.51
B11	2.64

The molecules below were run on oligomeric versus monomeric Aβ1-42 (Aβ1-42-biotin bait) (assay: Affinity capture interactome Experiment III (oAβ1-42-biotin vs mAβ1-42-biotin)). Details: Experiment III, oAbeta 1-42 (TMT 128) versus mAbeta 1-42 (TMT 131), replicate channel 128.

Molecule	128/131
B1	1.113

Same assay, conditions: Experiment III, oAbeta 1-42 (TMT 130) versus mAbeta 1-42 (TMT 131), replicate channel 130

Molecule	130/131
B1	0.949

Same assay, conditions: oligomeric versus monomeric bait; human frontal lobe digitonin extract; TMT; pH 8.0, 4°C overnight

Molecule	Experiment III oAβ1-42-B/mAβ1-42-B Ratio
B2	4.21
B3	1.73
B4	1.07
B5	4.88
B6	5.90
B7	1.54
B8	6.93
B9	2.04
B10	2.40
B11	2.45
